The values below come from PMC7181223, “A DyP-Type Peroxidase of Pleurotus sapidus with Alkene Cleaving Activity” (Molecules, 2020).

Substrate in this series: CCn1c(=NN=c2sc3cc(S(=O)(=O)O)ccc3n2CC)sc2cc(S(=O)(=O)O)ccc21
As to the kind of experiment: purified protein. The format is biochemical, Pleurotus sapidus. The conditions noted are these: 100 µM H2O2, 25 mM MnSO4, optimal pH and temperature (pH 3.5, 40 °C).

B1: PsaPOX (DyP-type peroxidase of Pleurotus sapidus) (Pleurotus sapidus) (protein)
chain: MTTPAPPLDLNNIQGDILGGLPKKTETYFFFDVTNVDRFKANMTQFIPHVKTSAGIVKDREAIKEHKRQKRPGLVPMAAVNVSFSHLGLQKLGITDDLSDSSFTTGQRKDAEVLGDPGTKNGDTFTPAWEAPFLKDIHGVIFVAGDCHASVHKKLDEIKHIFGVGTSHASISEVTHVRGDVRPGQVSAHEHFGFLDGISNPAVDQFDQNPFPGQDSIRPGFILAKENGDSRAAARPDWAKDGSFLTFRYLFQMVPEFDDFLESNPIVLPGLSRKEGSELLGARIVGRWKSGAPIEITPLKDDPKLGADAQRNNNFDFGDSLVRGDQTKCPFAAHIRKTYPRNDLEGPPLNADIDNRRIIRRGIQFGPEVTSQEHHDKKTHHGRGLLFVCYSSSIDDGFHFIQQSWANAPNFPVNAVTSAGPIPPLDGVIPGFDAIIGQKVGGGIRQISGTNPNDPTTNITLPDQDFVIPRGGEYFFSPSISALKTKFAAGVASSAPQAQAPIST
notes: full-length ORF (1512 bp, 504 aa), C-terminal 6x His tag kept, S. cerevisiae alpha-factor secretion signal (pPIC9), Komagataella pfaffii GS115, Ni-NTA; monomeric
The term Km denotes the concentration of substrate that gives half-maximal velocity. The term kcat/Km denotes the second-order rate constant that governs catalysis at low substrate concentration. In the case of B1, the Km was 37 ± 4 µM and the kcat/Km was 184000 ± 5000 M⁻¹ s⁻¹.
